Columns and labels:
[1] = target: PrgKEC, extracytoplasmic region of PrgK (residues 273-871) (Enterococcus faecalis (plasmid pCF10)) (UniProt Q5G3P4); experiment: […], pH 5.0, 100 mM NaCl; […]
[2] = target: the molecule itself; experiment: […], pH 5.0, 100 mM NaCl; […]
[3] = target: the molecule itself; experiment: non-reducing SDS-PAGE

For “PrgL_(32-208), extracellular domain of PrgL (domain or fragment)”, which stoichiometry N (PrgL32-208 per PrgKEC (1:1)) [1] is on record?
The stoichiometry N (PrgL32-208 per PrgKEC (1:1)) was 1.

B1: PrgKEC, extracytoplasmic region of PrgK (residues 273-871) (domain or fragment)
chain: ASSTQKPAIVQEEEDLTASWTYFTKLDAQHTDDNNLFYSNIDEVLFYMNYRYDDFKLLDMDSTGTKNFETILSELWTALNGKKPDYQLKTMQSLETDKKSSYFIEEEQAKHYQEIKKELGYQTLDDLLSFPVKTDALIVNKRYGYDKSKEKLTLYQGIDVLIEDNQPFHSPMNGQIVSVPDTETLVIEKEKVARLTIRGVNTLRLTKGMDVEEGTFLGNTKNSTVTFQYEKYKKETKDWFFVNPAFYFPRVTYTQTTLLGSADFSPGASVEKRAQAVYDYLSKKGYTKEGISAILGNFSVESGINPKRAEGDYLNPPVGAHGNSWDEPSWLSMGGPQIYGGRFPNILHRGLGLGQWTDTADGGRRHTLLLDYAKGKNKKWYDLQLQLDFIFDGDAPGSRTAADNVARSKVAATIPELTTYFLTVWEGNPGDKLGERIQAAQNWFTFFSRSGTPIGGSGSEVFAQYKEKMQPLPTDRETKAGQGWPGNAYAPGNCTWYVFNRFAQLGKSIHPTMGNANQWVHNYSQTPGATLESAPKKGDAVIFTNGVAGSSTQYGHVAYVEHVNSDGSFVISEMNVSGEYSMNWRVLKKEAGEYFMRLN
notes: also called PrgKEC wild type; extracellular domain of PrgK; source: E. coli BL21(DE3), purified (Ni-NTA, PreScission elution, Superdex-200 SEC)
Which “stoichiometry N” value [2] does the source give for B1 here?
The value was 2 chains in the oligomer (dimer).

B2: PrgK_(SLT-CHAP) (residues 530-871) (domain or fragment)
chain: LLGSADFSPGASVEKRAQAVYDYLSKKGYTKEGISAILGNFSVESGINPKRAEGDYLNPPVGAHGNSWDEPSWLSMGGPQIYGGRFPNILHRGLGLGQWTDTADGGRRHTLLLDYAKGKNKKWYDLQLQLDFIFDGDAPGSRTAADNVARSKVAATIPELTTYFLTVWEGNPGDKLGERIQAAQNWFTFFSRSGTPIGGSGSEVFAQYKEKMQPLPTDRETKAGQGWPGNAYAPGNCTWYVFNRFAQLGKSIHPTMGNANQWVHNYSQTPGATLESAPKKGDAVIFTNGVAGSSTQYGHVAYVEHVNSDGSFVISEMNVSGEYSMNWRVLKKEAGEYFMRLN
Does B2 bind [3]?
Result: binds

B3: PrgK_(CHAP) (residues 723-871) (domain or fragment)
chain: GTPIGGSGSEVFAQYKEKMQPLPTDRETKAGQGWPGNAYAPGNCTWYVFNRFAQLGKSIHPTMGNANQWVHNYSQTPGATLESAPKKGDAVIFTNGVAGSSTQYGHVAYVEHVNSDGSFVISEMNVSGEYSMNWRVLKKEAGEYFMRLN
notes: also called CHAP domain; source: E. coli BL21(DE3), purified (IMAC fractions)
Does B3 bind [3]?
Result: binds

— paper PMC11323569 (mBio, 2024)
